Holding throughout (test): SEC area ratio of heteromultimer after coexpression of full-length heavy chain, light chain and Fc fragment in Expi293F
In series [1] the target is T1, IgG1 Fc fragment with CH3 modification K392D/D399K/K409D (SEQ ID NO: 72).
T1 chain: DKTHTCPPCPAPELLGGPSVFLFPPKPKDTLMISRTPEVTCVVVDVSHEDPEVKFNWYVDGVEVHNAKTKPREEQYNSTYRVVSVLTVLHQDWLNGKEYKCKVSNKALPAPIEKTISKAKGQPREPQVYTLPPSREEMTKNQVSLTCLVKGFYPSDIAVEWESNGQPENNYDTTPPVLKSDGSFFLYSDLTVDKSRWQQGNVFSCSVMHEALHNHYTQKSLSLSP

Series [2] addresses T2, IgG1 Fc fragment with CH3 modification Q347R/K360E/D399V/F405T/K409W (SEQ ID NO: 66).
T2 chain: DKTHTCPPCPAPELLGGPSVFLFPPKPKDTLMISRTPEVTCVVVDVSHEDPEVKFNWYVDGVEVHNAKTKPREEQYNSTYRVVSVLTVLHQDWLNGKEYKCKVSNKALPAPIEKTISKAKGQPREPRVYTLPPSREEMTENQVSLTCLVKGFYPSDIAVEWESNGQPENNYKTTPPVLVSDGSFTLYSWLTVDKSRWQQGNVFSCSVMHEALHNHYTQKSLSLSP

In series [3] the target is T3, IgG1 Fc fragment with CH3 modification T350V/L351Y/T366L/K392L/T394W/F405A/Y407V (SEQ ID NO: 77).
T3 chain: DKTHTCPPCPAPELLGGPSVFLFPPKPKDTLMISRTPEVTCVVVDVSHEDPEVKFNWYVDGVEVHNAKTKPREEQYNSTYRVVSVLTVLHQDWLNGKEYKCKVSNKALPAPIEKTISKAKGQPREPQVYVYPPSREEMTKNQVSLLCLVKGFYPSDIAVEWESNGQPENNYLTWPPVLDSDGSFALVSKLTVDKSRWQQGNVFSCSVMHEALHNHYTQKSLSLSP

In series [4] the target is T4, IgG1 Fc fragment with CH3 modification T366W/L368A/Y407V (SEQ ID NO: 65).
T4 chain: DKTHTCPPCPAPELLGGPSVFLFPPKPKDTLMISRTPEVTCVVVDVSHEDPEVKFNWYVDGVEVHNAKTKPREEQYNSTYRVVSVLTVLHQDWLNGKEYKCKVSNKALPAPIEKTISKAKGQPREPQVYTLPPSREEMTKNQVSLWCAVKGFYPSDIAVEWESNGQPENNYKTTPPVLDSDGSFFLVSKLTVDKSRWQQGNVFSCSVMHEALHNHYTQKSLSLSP

Series [5] concerns the target IgG1 Fc fragment with CH3 modification T394F/F405A (SEQ ID NO: 67).

B1: full-length IgG heavy chain with CH3 modification Y349C/E357C/K392D/D399K (SEQ ID NO: 51), coexpressed with light chain SEQ ID NO: 61 (protein)
chain 1: QVQLQESGPGLVRPSQTLSLTCTVSGYSITSDHAWSWVRQPPGRGLEWIGYISYSGITTYNPSLKSRVTMLRDTSKNQFSLRLSSVTAADTAVYYCARSLARTTAMDYWGQGSLVTVSSASTKGPSVFPLAPSSKSTSGGTAALGCLVKDYFPEPVTVSWNSGALTSGVHTFPAVLQSSGLYSLSSVVTVPSSSLGTQTYICNVNHKPSNTKVDKRVEPKSCDKTHTCPPCPAPELLGGPSVFLFPPKPKDTLMISRTPEVTCVVVDVSHEDPEVKFNWYVDGVEVHNAKTKPREEQYNSTYRVVSVLTVLHQDWLNGKEYKCKVSNKALPAPIEKTISKAKGQPREPQVCTLPPSRECMTKNQVSLTCLVKGFYPSDIAVEWESNGQPENNYDTTPPVLKSDGSFFLYSKLTVDKSRWQQGNVFSCSVMHEALHNHYTQKSLSLSP
chain 2: not shown
B1: the heterodimer formation ratio (%) worked out at 9% in series [1]; 0% in series [2]; 0% in series [3]; 0% in series [4]; 0% in series [5].

B2: full-length IgG heavy chain with CH3 modification T350V/L351Y/T366L/K392L/T394W/F405A/Y407V (SEQ ID NO: 60), coexpressed with light chain SEQ ID NO: 61 (protein)
chain 1: QVQLQESGPGLVRPSQTLSLTCTVSGYSITSDHAWSWVRQPPGRGLEWIGYISYSGITTYNPSLKSRVTMLRDTSKNQFSLRLSSVTAADTAVYYCARSLARTTAMDYWGQGSLVTVSSASTKGPSVFPLAPSSKSTSGGTAALGCLVKDYFPEPVTVSWNSGALTSGVHTFPAVLQSSGLYSLSSVVTVPSSSLGTQTYICNVNHKPSNTKVDKRVEPKSCDKTHTCPPCPAPELLGGPSVFLFPPKPKDTLMISRTPEVTCVVVDVSHEDPEVKFNWYVDGVEVHNAKTKPREEQYNSTYRVVSVLTVLHQDWLNGKEYKCKVSNKALPAPIEKTISKAKGQPREPQVYVYPPSREEMTKNQVSLLCLVKGFYPSDIAVEWESNGQPENNYLTWPPVLDSDGSFALVSKLTVDKSRWQQGNVFSCSVMHEALHNHYTQKSLSLSP
chain 2: not shown
Take B2: the heterodimer formation ratio (%) in series [1] was 0%; in series [2], 0%; in series [3], 51%; in series [4] it was 0%; in series [5], 4%.

B3: full-length IgG heavy chain with CH3 modification E345R/Q347R/K360D/T366V/D399M/Y407A/K409V (SEQ ID NO: 55), coexpressed with light chain SEQ ID NO: 61 (protein)
chain 1: QVQLQESGPGLVRPSQTLSLTCTVSGYSITSDHAWSWVRQPPGRGLEWIGYISYSGITTYNPSLKSRVTMLRDTSKNQFSLRLSSVTAADTAVYYCARSLARTTAMDYWGQGSLVTVSSASTKGPSVFPLAPSSKSTSGGTAALGCLVKDYFPEPVTVSWNSGALTSGVHTFPAVLQSSGLYSLSSVVTVPSSSLGTQTYICNVNHKPSNTKVDKRVEPKSCDKTHTCPPCPAPELLGGPSVFLFPPKPKDTLMISRTPEVTCVVVDVSHEDPEVKFNWYVDGVEVHNAKTKPREEQYNSTYRVVSVLTVLHQDWLNGKEYKCKVSNKALPAPIEKTISKAKGQPRRPRVYTLPPSREEMTDNQVSLVCLVKGFYPSDIAVEWESNGQPENNYKTTPPVLMSDGSFFLASVLTVDKSRWQQGNVFSCSVMHEALHNHYTQKSLSLSP
chain 2: not shown
Take B3: the heterodimer formation ratio (%) in series [1] turned out to be 0%; in series [2] it was 6%; in series [3] it was 0%; in series [4] it was 0%; in series [5], 0%.

B4: full-length IgG heavy chain with CH3 modification E345R/K360E/D399M/Y407A/K409V (SEQ ID NO: 58), coexpressed with light chain SEQ ID NO: 61 (protein)
chain 1: QVQLQESGPGLVRPSQTLSLTCTVSGYSITSDHAWSWVRQPPGRGLEWIGYISYSGITTYNPSLKSRVTMLRDTSKNQFSLRLSSVTAADTAVYYCARSLARTTAMDYWGQGSLVTVSSASTKGPSVFPLAPSSKSTSGGTAALGCLVKDYFPEPVTVSWNSGALTSGVHTFPAVLQSSGLYSLSSVVTVPSSSLGTQTYICNVNHKPSNTKVDKRVEPKSCDKTHTCPPCPAPELLGGPSVFLFPPKPKDTLMISRTPEVTCVVVDVSHEDPEVKFNWYVDGVEVHNAKTKPREEQYNSTYRVVSVLTVLHQDWLNGKEYKCKVSNKALPAPIEKTISKAKGQPRRPQVYTLPPSREEMTENQVSLTCLVKGFYPSDIAVEWESNGQPENNYKTTPPVLMSDGSFFLASVLTVDKSRWQQGNVFSCSVMHEALHNHYTQKSLSLSP
chain 2: not shown
Take B4: the heterodimer formation ratio (%) worked out at 3% in series [1]; 4% in series [2]; 0% in series [3]; 0% in series [4]; 0% in series [5].

B5: full-length IgG heavy chain with CH3 modification E356K/K392D/D399K/K409D (SEQ ID NO: 56), coexpressed with light chain SEQ ID NO: 61 (protein)
chain 1: QVQLQESGPGLVRPSQTLSLTCTVSGYSITSDHAWSWVRQPPGRGLEWIGYISYSGITTYNPSLKSRVTMLRDTSKNQFSLRLSSVTAADTAVYYCARSLARTTAMDYWGQGSLVTVSSASTKGPSVFPLAPSSKSTSGGTAALGCLVKDYFPEPVTVSWNSGALTSGVHTFPAVLQSSGLYSLSSVVTVPSSSLGTQTYICNVNHKPSNTKVDKRVEPKSCDKTHTCPPCPAPELLGGPSVFLFPPKPKDTLMISRTPEVTCVVVDVSHEDPEVKFNWYVDGVEVHNAKTKPREEQYNSTYRVVSVLTVLHQDWLNGKEYKCKVSNKALPAPIEKTISKAKGQPREPQVYTLPPSRKEMTKNQVSLTCLVKGFYPSDIAVEWESNGQPENNYDTTPPVLKSDGSFFLYSDLTVDKSRWQQGNVFSCSVMHEALHNHYTQKSLSLSP
chain 2: not shown
Turning to B5, the heterodimer formation ratio (%) is 51% in series [1]; 0% in series [2]; 0% in series [3]; 0% in series [4]; 0% in series [5].
